According to patent publication US20220308072A1:

How the values were obtained:
[1] = target: Recombinant, his tagged full length human frataxin protein (Abcam ab95502) (human) (UniProt Q16595); assay: Simoa sandwich 3-step; capture Ab-4
[2] = target: Recombinant, his tagged full length human frataxin protein (Abcam ab95502) (human) (UniProt Q16595); assay: Simoa sandwich 3-step; capture Ab-3
[3] = target: Recombinant, his tagged full length human frataxin protein (Abcam ab95502) (human) (UniProt Q16595); assay: Simoa sandwich 3-step; capture Ab-5
[4] = target: Recombinant, his tagged full length human frataxin protein (Abcam ab95502) (human) (UniProt Q16595); assay: Simoa sandwich 3-step; capture Ab-2
[5] = target: Recombinant, his tagged full length human frataxin protein (Abcam ab95502) (human) (UniProt Q16595); assay: Simoa sandwich 3-step; capture Ab-1
[6] = target: Recombinant, his tagged full length human frataxin protein (Abcam ab95502) (human) (UniProt Q16595); assay: Simoa sandwich 2-step; capture Ab-2
[7] = target: Recombinant, his tagged full length human frataxin protein (Abcam ab95502) (human) (UniProt Q16595); assay: Simoa sandwich 3-step; capture Ab-2; remark: listed apart in the source
[8] = target: Recombinant, his tagged full length human frataxin protein (Abcam ab95502) (human) (UniProt Q16595); assay: Simoa sandwich 2-step; capture Ab-1
[9] = target: Recombinant, his tagged full length human frataxin protein (Abcam ab95502) (human) (UniProt Q16595); assay: Simoa sandwich 3-step; capture Ab-1; remark: listed apart in the source
[10] = target: Recombinant, his tagged full length human frataxin protein (Abcam ab95502) (human) (UniProt Q16595); assay: Simoa sandwich 3-step; capture Ab-4; frataxin 100 pg/mL
[11] = target: Recombinant, his tagged full length human frataxin protein (Abcam ab95502) (human) (UniProt Q16595); assay: Simoa sandwich 3-step; capture Ab-3; frataxin 100 pg/mL
[12] = target: Recombinant, his tagged full length human frataxin protein (Abcam ab95502) (human) (UniProt Q16595); assay: Simoa sandwich 3-step; capture Ab-5; frataxin 100 pg/mL
[13] = target: Recombinant, his tagged full length human frataxin protein (Abcam ab95502) (human) (UniProt Q16595); assay: Simoa sandwich 3-step; capture Ab-2; frataxin 100 pg/mL
[14] = target: Recombinant, his tagged full length human frataxin protein (Abcam ab95502) (human) (UniProt Q16595); assay: Simoa sandwich 3-step; capture Ab-1; frataxin 100 pg/mL
[15] = target: Recombinant, his tagged full length human frataxin protein (Abcam ab95502) (human) (UniProt Q16595); assay: Simoa sandwich 2-step; capture Ab-2; frataxin 100 pg/mL
[16] = target: Recombinant, his tagged full length human frataxin protein (Abcam ab95502) (human) (UniProt Q16595); assay: Simoa sandwich 3-step; capture Ab-2; frataxin 100 pg/mL; remark: listed apart in the source
[17] = target: Recombinant, his tagged full length human frataxin protein (Abcam ab95502) (human) (UniProt Q16595); assay: Simoa sandwich 2-step; capture Ab-1; frataxin 100 pg/mL
[18] = target: Recombinant, his tagged full length human frataxin protein (Abcam ab95502) (human) (UniProt Q16595); assay: Simoa sandwich 3-step; capture Ab-1; frataxin 100 pg/mL; remark: listed apart in the source
[19] = target: Recombinant, his tagged full length human frataxin protein (Abcam ab95502) (human) (UniProt Q16595); assay: Simoa sandwich 3-step; capture Ab-4; frataxin 1000 pg/mL
[20] = target: Recombinant, his tagged full length human frataxin protein (Abcam ab95502) (human) (UniProt Q16595); assay: Simoa sandwich 3-step; capture Ab-3; frataxin 1000 pg/mL
[21] = target: Recombinant, his tagged full length human frataxin protein (Abcam ab95502) (human) (UniProt Q16595); assay: Simoa sandwich 3-step; capture Ab-5; frataxin 1000 pg/mL
[22] = target: Recombinant, his tagged full length human frataxin protein (Abcam ab95502) (human) (UniProt Q16595); assay: Simoa sandwich 3-step; capture Ab-2; frataxin 1000 pg/mL
[23] = target: Recombinant, his tagged full length human frataxin protein (Abcam ab95502) (human) (UniProt Q16595); assay: Simoa sandwich 3-step; capture Ab-1; frataxin 1000 pg/mL
[24] = target: Recombinant, his tagged full length human frataxin protein (Abcam ab95502) (human) (UniProt Q16595); assay: Simoa sandwich 2-step; capture Ab-2; frataxin 1000 pg/mL
[25] = target: Recombinant, his tagged full length human frataxin protein (Abcam ab95502) (human) (UniProt Q16595); assay: Simoa sandwich 3-step; capture Ab-2; frataxin 1000 pg/mL; remark: listed apart in the source
[26] = target: Recombinant, his tagged full length human frataxin protein (Abcam ab95502) (human) (UniProt Q16595); assay: Simoa sandwich 2-step; capture Ab-1; frataxin 1000 pg/mL
[27] = target: Recombinant, his tagged full length human frataxin protein (Abcam ab95502) (human) (UniProt Q16595); assay: Simoa sandwich 3-step; capture Ab-1; frataxin 1000 pg/mL; remark: listed apart in the source
[28] = target: Recombinant, his tagged full length human frataxin protein (Abcam ab95502) (human) (UniProt Q16595); assay: Simoa sandwich 3-step; capture Ab-4; frataxin 10000 pg/mL
[29] = target: Recombinant, his tagged full length human frataxin protein (Abcam ab95502) (human) (UniProt Q16595); assay: Simoa sandwich 3-step; capture Ab-3; frataxin 10000 pg/mL
[30] = target: Recombinant, his tagged full length human frataxin protein (Abcam ab95502) (human) (UniProt Q16595); assay: Simoa sandwich 3-step; capture Ab-5; frataxin 10000 pg/mL
[31] = target: Recombinant, his tagged full length human frataxin protein (Abcam ab95502) (human) (UniProt Q16595); assay: Simoa sandwich 3-step; capture Ab-2; frataxin 10000 pg/mL
[32] = target: Recombinant, his tagged full length human frataxin protein (Abcam ab95502) (human) (UniProt Q16595); assay: Simoa sandwich 3-step; capture Ab-1; frataxin 10000 pg/mL
[33] = target: Recombinant, his tagged full length human frataxin protein (Abcam ab95502) (human) (UniProt Q16595); assay: Simoa sandwich 2-step; capture Ab-2; frataxin 10000 pg/mL
[34] = target: Recombinant, his tagged full length human frataxin protein (Abcam ab95502) (human) (UniProt Q16595); assay: Simoa sandwich 3-step; capture Ab-2; frataxin 10000 pg/mL; remark: listed apart in the source
[35] = target: Recombinant, his tagged full length human frataxin protein (Abcam ab95502) (human) (UniProt Q16595); assay: Simoa sandwich 2-step; capture Ab-1; frataxin 10000 pg/mL
[36] = target: Recombinant, his tagged full length human frataxin protein (Abcam ab95502) (human) (UniProt Q16595); assay: Simoa sandwich 3-step; capture Ab-1; frataxin 10000 pg/mL; remark: listed apart in the source

Chain of UniProt Q16595 (Q16595 42-210): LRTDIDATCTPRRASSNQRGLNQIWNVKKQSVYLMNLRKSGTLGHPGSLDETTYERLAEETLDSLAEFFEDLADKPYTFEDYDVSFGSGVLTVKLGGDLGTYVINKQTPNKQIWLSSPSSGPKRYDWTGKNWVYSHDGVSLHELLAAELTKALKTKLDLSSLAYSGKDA

Substance: Ab-5, rabbit polyclonal to recombinant full-length Human Frataxin (Abcam ab175402) (antibody)
- LOD [1]: 52.8 pg/mL
- LOD [2]: 33.6 pg/mL
- LOD [3]: 7.44 pg/mL
- LOD [4]: 4.62 pg/mL
- LOD [5]: 2.95 pg/mL
- LOD [6]: 1.88 pg/mL
- LOD [7]: 4.9 pg/mL
- LOD [8]: 1.27 pg/mL
- LOD [9]: 5.12 pg/mL
- Ave AEB [10]: 0.814 AEB
- S/B [10]: 1.51
- Ave AEB [11]: 0.469 AEB
- S/B [11]: 1.8
- Ave AEB [12]: 0.573 AEB
- S/B [12]: 5.82
- Ave AEB [13]: 0.115 AEB
- S/B [13]: 7.3
- Ave AEB [14]: 0.106 AEB
- S/B [14]: 10.8
- Ave AEB [15]: 1.49 AEB
- S/B [15]: 26.1
- Ave AEB [16]: 0.16 AEB
- S/B [16]: 7.69
- Ave AEB [17]: 1.61 AEB
- S/B [17]: 27.6
- Ave AEB [18]: 0.152 AEB
- S/B [18]: 6.28
- Ave AEB [19]: 3.95 AEB
- S/B [19]: 7.32
- Ave AEB [20]: 2.64 AEB
- S/B [20]: 10.1
- Ave AEB [21]: 5.53 AEB
- S/B [21]: 56.2
- Ave AEB [22]: 1.03 AEB
- S/B [22]: 65
- Ave AEB [23]: 0.998 AEB
- S/B [23]: 101
- Ave AEB [24]: 13.1 AEB
- S/B [24]: 228
- Ave AEB [25]: 1.59 AEB
- S/B [25]: 76.4
- Ave AEB [26]: 12.4 AEB
- S/B [26]: 212
- Ave AEB [27]: 1.31 AEB
- S/B [27]: 53.9
- Ave AEB [28]: 23.7 AEB
- S/B [28]: 44.1
- Ave AEB [29]: 20.5 AEB
- S/B [29]: 78.8
- Ave AEB [30]: 21.7 AEB
- S/B [30]: 220
- Ave AEB [31]: 5.41 AEB
- S/B [31]: 343
- Ave AEB [32]: 5.93 AEB
- S/B [32]: 602
- Ave AEB [33]: 28.4 AEB
- S/B [33]: 497
- Ave AEB [34]: 9.03 AEB
- S/B [34]: 434
- Ave AEB [35]: 29.3 AEB
- S/B [35]: 502
- Ave AEB [36]: 8.37 AEB
- S/B [36]: 346

Substance: Ab-1, unconjugated mouse monoclonal to human Frataxin (LSBio LS-C760752) (antibody)
- LOD [1]: 66 pg/mL
- LOD [2]: 23.8 pg/mL
- LOD [3]: 4.85 pg/mL
- LOD [4]: 7.78 pg/mL
- Ave AEB [10]: 4.72 AEB
- S/B [10]: 1.37
- Ave AEB [11]: 1.92 AEB
- S/B [11]: 2.05
- Ave AEB [12]: 0.834 AEB
- S/B [12]: 9.35
- Ave AEB [13]: 0.0069 AEB
- S/B [13]: 4.45
- Ave AEB [14]: 0.007 AEB
- Ave AEB [19]: 12.4 AEB
- S/B [19]: 3.63
- Ave AEB [20]: 10.3 AEB
- S/B [20]: 11
- Ave AEB [21]: 8.56 AEB
- S/B [21]: 95.9
- Ave AEB [22]: 0.0712 AEB
- S/B [22]: 46.2
- Ave AEB [23]: 0.0953 AEB
- Ave AEB [30]: 28.9 AEB
- S/B [30]: 324
- Ave AEB [31]: 1.36 AEB
- S/B [31]: 885
- Ave AEB [32]: 1.19 AEB

Substance: Ab-2, unconjugated mouse monoclonal to Human Frataxin FXN (LSBio LS-C755462) (antibody)
- LOD [1]: 89.6 pg/mL
- LOD [2]: 18 pg/mL
- LOD [3]: 4.43 pg/mL
- LOD [4]: 9.76 pg/mL
- LOD [5]: 5.71 pg/mL
- Ave AEB [10]: 4.73 AEB
- S/B [10]: 1.29
- Ave AEB [11]: 2.42 AEB
- S/B [11]: 2.36
- Ave AEB [12]: 0.961 AEB
- S/B [12]: 9.84
- Ave AEB [13]: 0.0068 AEB
- S/B [13]: 5.41
- Ave AEB [14]: 0.0088 AEB
- S/B [14]: 7.44
- Ave AEB [19]: 13.6 AEB
- S/B [19]: 3.71
- Ave AEB [20]: 11.6 AEB
- S/B [20]: 11.3
- Ave AEB [21]: 9.35 AEB
- S/B [21]: 95.7
- Ave AEB [22]: 0.101 AEB
- S/B [22]: 80.4
- Ave AEB [23]: 0.107 AEB
- S/B [23]: 90.8
- Ave AEB [30]: 29.5 AEB
- S/B [30]: 302
- Ave AEB [31]: 0.83 AEB
- S/B [31]: 659
- Ave AEB [32]: 1.05 AEB
- S/B [32]: 892
